Our source for the Kd, koff and kon values is patent publication US20240190978A1 (CSBIOASSET, published 2024).

The target of one assay is T1, human CD40-Avi-tag (human, UniProt P25942 21-193).
T1 construct: Immobilized on NA-coated CM5 chips at about 200 RU; not shown: Avi-tag
Put plainly: SPR (Biacore 8K, 25 °C), hCD40 immobilized, 1:1 binding model. As to the method: (§1) To evaluate binding of the bispecific binding proteins disclosed herein, surface plasmon resonance (SPR) studies were performed on a Biacore 8k instrument (GE Healthcare) at 25° C. The binding of the protein analytes was tested in buffer: 10 mM HEPES, 150 mM NaCl, 3 mM EDTA, 0.05% TWEEN20, pH7.4 on surfaces consisting of a low density (˜200RU) of human CD40-Avi-tag or human CD80-Avi-tag which had been immobilized on NA-coated CM5 chips using standard protocol. The protein analytes were injected in a titration series at a flowrate of 50 ul/min. The data were analyzed using the Biacore Insight Evaluation software. An 1:1 binding kinetic and affinity models are applied for experimental data analysis. The value for the equilibrium dissociation constant (KD) was calculated as the ratio of the rate constants Kd/Ka.
In general terms: Surface plasmon resonance follows binding to a sensor surface in real time, without labels.

A further assay has as its target T2, human CD80-Avi-tag (human, UniProt P33681 35-242).
T2 construct: also called immobilized human CD80; not shown: Avi-tag
T2 sequence (looked up): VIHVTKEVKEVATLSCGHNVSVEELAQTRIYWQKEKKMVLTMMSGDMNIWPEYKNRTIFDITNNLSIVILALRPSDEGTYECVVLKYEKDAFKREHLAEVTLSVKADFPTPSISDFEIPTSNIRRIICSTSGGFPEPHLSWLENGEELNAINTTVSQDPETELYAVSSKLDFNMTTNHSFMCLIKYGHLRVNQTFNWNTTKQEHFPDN
The assay can be described thus: SPR (Biacore 8K, 25 °C), hCD80 immobilized, 1:1 binding model. As to the method:
as §1

Usually Kd stands for the concentration at which binding is half-saturated. Lower therefore signals higher affinity. One may read the koff as the first-order rate constant of dissociation. A lower koff goes with a long-lived complex. Broadly, the kon is the rate constant with which the complex forms. High values mean fast association, low ones slow association.

T1 sequence (P25942 21-193 limits assumed): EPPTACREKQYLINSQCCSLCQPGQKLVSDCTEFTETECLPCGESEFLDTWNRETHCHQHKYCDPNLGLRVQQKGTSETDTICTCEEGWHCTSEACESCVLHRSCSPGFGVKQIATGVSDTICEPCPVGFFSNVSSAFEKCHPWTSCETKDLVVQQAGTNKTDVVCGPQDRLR

B1: α-CD40/CTLA-4 bispecific protein (SEQ ID NO: 2 with SEQ ID NO: 11) (bispecific antibody, human IgG4 S228P, kappa)
heavy: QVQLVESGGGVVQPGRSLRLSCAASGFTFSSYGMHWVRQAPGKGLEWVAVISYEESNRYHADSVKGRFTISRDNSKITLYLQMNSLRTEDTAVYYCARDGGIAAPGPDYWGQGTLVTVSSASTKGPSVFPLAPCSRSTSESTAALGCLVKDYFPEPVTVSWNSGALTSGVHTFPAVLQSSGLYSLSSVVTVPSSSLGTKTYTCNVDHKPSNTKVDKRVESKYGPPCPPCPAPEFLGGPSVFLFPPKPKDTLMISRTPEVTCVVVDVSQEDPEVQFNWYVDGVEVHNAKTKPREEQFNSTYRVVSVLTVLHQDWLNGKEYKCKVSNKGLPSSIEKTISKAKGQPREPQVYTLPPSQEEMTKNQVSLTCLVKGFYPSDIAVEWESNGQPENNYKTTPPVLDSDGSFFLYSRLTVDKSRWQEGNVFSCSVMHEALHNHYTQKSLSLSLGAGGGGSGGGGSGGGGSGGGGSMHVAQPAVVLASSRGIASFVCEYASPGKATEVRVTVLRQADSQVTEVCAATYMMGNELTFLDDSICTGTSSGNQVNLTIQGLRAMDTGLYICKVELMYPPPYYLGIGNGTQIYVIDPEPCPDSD
light: DIVMTQSPLSLTVTPGEPASISCRSSQSLLYSNGYNYLDWYLQKPGQSPQVLISLGSNRASGVPDRFSGSGSGTDFTLKISRVEAEDVGVYYCMQARQTPFTFGPGTKVDIRRTVAAPSVFIFPPSDEQLKSGTASVVCLLNNFYPREAKVQWKVDNALQSGNSQESVTEQDSKDSTYSLSSTLTLSKADYEKHKVYACEVTHQGLSSPVTKSFNRGEC
notes: also called Duotein-B; exemplary α-CD40/CTLA-4 bispecific protein
Regarding B1, in the assay with human CD40-Avi-tag, the affinity, expressed as Kd, was 0.325 nM; the off-rate constant (koff) stood at 9.84e-05 s⁻¹; the on-rate constant (kon) is 303000 M⁻¹ s⁻¹. In the assay with human CD80-Avi-tag, the Kd is 154 nM, the off-rate constant (koff) is 0.12 s⁻¹ and the kon was 780000 M⁻¹ s⁻¹.
